Test results published in article PMC5472690, “3-Hydroxybenzoate 6-Hydroxylase from Rhodococcus jostii RHA1 Contains a Phosphatidylinositol Cofactor” (Frontiers in Microbiology, 2017).

Experiments:
Rj3HB6H = target: T1, Rj3HB6H (Rhodococcus jostii, UniProt Q0SFK6); assay: X-ray crystal structure, […] Å; type: binding; conditions: pH 8.5 precipitant; co-bound phospholipid
T1 construct: gene RHA1_ro01869; full length, C-terminal His6 tag, produced in R. jostii RHA1#2; N-terminal Met lacking; 46,761 Da subunit; homodimer

O=C(O)c1cccc(O)c1 = assay: purified protein; conditions: fixed NADH, 50 mM Tris-SO4, pH 8.0, 25°C
purified protein = substrate: NC(=O)C1=CN([C@@H]2O[C@H](COP(=O)(O)OP(=O)(O)OC[C@H]3O[C@@H](n4cnc5c(N)ncnc54)[C@H](O)[C@@H]3O)[C@@H](O)[C@H]2O)C=CC1; assay: purified protein; conditions: fixed 3-hydroxybenzoate, 50 mM Tris-SO4, pH 8.0, 25°C

Cc1cc2nc3c(=O)[nH]c(=O)nc-3n(C[C@H](O)[C@H](O)[C@H](O)COP(=O)(O)OP(=O)(O)OC[C@H]3O[C@@H](n4cnc5c(N)ncnc54)[C@H](O)[C@@H]3O)c2cc1C [FAD]
X-ray crystal structure, 2.3 Å (Rj3HB6H): The isoalloxazine moiety of FAD was refined with full occupancy

Rj3HB6H (Rhodococcus jostii RHA1)
Km (O=C(O)c1cccc(O)c1): 35 ± 3 µM | kcat (O=C(O)c1cccc(O)c1): 20 ± 1 s⁻¹

B1: Rj3HB6H (Rhodococcus jostii RHA1) (protein)
chain: SNLQDARIIIAGGGIGGAANALALAQKGANVTLFERASEFGEVGAGLQVGPHGARILDSWGVLDDVLSRAFLPKNIVFRDAITAEVLTKIDLGSEFRGRYGGPYFVTHRSDLHATLVDAARAAGAELHTGVTVTDVITEGDKAIVSTDDGRTHEADIALGMDGLKSRLREKISGDEPVSSGYAAYRGTTPYRDVELDEDIEDVVGYIGPRCHFIQYPLRGGEMLNQVAVFESPGFKNGIENWGGPEELEQAYAHCHENVRRGIDYLWKDRWWPMYDREPIENWVDGRMILLGDAAHPPLQYLASGAVMAIEDAKCLADYAAEDFSTGGNSAWPQILKEVNTERAPRCNRILTTGRMWGELWHLDGTARIARNELFRTRDTSSYKYTDWLWGYSSDRAS
Km (purified protein): 68 ± 5 µM | kcat (purified protein): 20 ± 1 s⁻¹
